Assay results reported in US20150337292A1.

Key:
[1] = target: hsEGFR (human (printed only as 'hs')) (UniProt P00533); assay: two-colour flow cytometry after 48 hours, b-hsEGFR/SA-PE and Fc-specific AlexaFluor 647
[2] = target: hsEGFR (human (printed only as 'hs')) (UniProt P00533); assay: two-colour flow cytometry after 24 hours, b-hsEGFR/SA-PE and Fc-specific AlexaFluor 647

percent of cells within the marker region M1 [1]: 43.4%
percent of cells within the marker region M1 [2]: 36.4%
Substance: antibody matuzumab (IgG molecule) secreted by yeast and displayed through the ZZ domain
